{
  "source": "paper PMC5840397",
  "about": "(2018)",
  "binders": {"B1": {"name": "2 × CTLD–Fc (two human LOX-1 CTLDs in tandem, Fc-fused) (Fc fusion)", "chain": "not shown"}},
  "biological_target": "T1, C-terminally His-tagged human ECRG4(32–148) (human, UniProt Q9H1Z8 32-148)",
  "T1 chain": "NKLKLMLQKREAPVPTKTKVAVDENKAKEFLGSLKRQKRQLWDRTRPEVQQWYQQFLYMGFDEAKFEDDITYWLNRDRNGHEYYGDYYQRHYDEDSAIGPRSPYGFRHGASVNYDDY",
  "assay": "SPR",
  "data": [
    {"binder": "B1", "values": [
      {"measurement": "Kd", "value": 14.2, "unit": "nM"}
    ]}
  ]
}
